Data on 5 compounds can be found in paper PMC7735759, “Structural basis of TRPC4 regulation by calmodulin and pharmacological agents” (eLife, 2020).

A value given as a limit tells only on which side of the number the result lay.

The target in experiment [1] is T1, TRPC4 (Danio rerio, UniProt U3N7D8).
T1 construct: gene trpc4b; residues 2–915
T1 sequence (U3N7D8 2-915): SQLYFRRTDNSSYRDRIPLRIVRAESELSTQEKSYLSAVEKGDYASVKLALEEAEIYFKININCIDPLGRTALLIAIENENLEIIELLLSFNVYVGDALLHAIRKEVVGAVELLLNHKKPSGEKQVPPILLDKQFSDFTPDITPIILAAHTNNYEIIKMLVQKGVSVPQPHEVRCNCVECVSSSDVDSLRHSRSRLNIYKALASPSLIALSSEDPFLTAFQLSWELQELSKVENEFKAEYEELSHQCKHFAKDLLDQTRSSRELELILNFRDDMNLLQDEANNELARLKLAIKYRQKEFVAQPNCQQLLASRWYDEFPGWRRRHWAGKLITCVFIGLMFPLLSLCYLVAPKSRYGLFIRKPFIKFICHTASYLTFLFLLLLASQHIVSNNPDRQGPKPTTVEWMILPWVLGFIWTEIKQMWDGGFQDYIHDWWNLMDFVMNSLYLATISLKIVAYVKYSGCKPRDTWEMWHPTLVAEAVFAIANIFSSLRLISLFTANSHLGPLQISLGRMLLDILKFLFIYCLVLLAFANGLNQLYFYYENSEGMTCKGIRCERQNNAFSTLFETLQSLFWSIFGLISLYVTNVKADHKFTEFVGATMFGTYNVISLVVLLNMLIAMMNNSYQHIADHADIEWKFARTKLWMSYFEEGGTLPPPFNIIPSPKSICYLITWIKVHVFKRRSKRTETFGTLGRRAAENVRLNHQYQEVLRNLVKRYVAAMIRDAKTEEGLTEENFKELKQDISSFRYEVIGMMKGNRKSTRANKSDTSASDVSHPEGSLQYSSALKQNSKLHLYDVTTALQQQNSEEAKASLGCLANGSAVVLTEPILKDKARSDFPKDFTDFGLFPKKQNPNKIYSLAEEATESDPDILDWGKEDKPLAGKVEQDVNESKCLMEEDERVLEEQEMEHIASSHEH
The experiment can be described thus: cryo-EM structure at […] Å; also dose-dependent inhibition of (-)-Englerin A currents in TRPC4-expressing oocytes. It counts as binding.

Experiment [2] addresses T1, TRPC4. The description is as above. The experiment is classed as binding. The source holds these as a separate data set.
The target of experiment [3] is T1, TRPC4. Described as above. The experiment is classed as binding. This is another data set of the same source.
Experiment [4] concerns the target Zebrafish TRPC4 (Danio rerio TRPC4, residues 2-915) (Danio rerio (zebrafish)). Description: cryo-EM structure; TRPC4-CaM complex in LMNG, 10 mM calcium chloride, 10 µM CaM added; 3D sorting without symmetry for the stoichiometries.
Experiment [5] has the same target. Description: cryo-EM structure; TRPC4 alone: apo in LMNG, and in amphipols with 100 µM GFB-8438, GFB-9289 or GFB-8749; C4 symmetry.

On to `O=C1CN(c2cn[nH]c(=O)c2Cl)CCN1Cc1ccccc1C(F)(F)F` [GFB-8438], for which the “cryo-EM structure at 3.6 Å; also dose-dependent inhibition of (-)-Englerin A cur” value on TRPC4 [1] was “The shape of the density clearly indicated that it corresponds to the bound inhibitor”.
Take `O=C1CN(c2cn[nH]c(=O)c2Cl)CCN1C1CCCCC1` [GFB-9289, 4-chloro-5-(4-cyclohexyl-3-oxopiperazin-1-yl)-2,3-dihydropyridazin-3-one]: the “cryo-EM structure at 3.2 Å; also dose-dependent inhibition of (-)-Englerin A cur” value on TRPC4 [2] is “we found an extra density inside the VSL domain region of GFB-9289-bound TRPC4”.
As for `O=C1CN(c2cn[nH]c(=O)c2Cl)CCN1CC1CCC(F)(F)CC1` [GFB-8749], on TRPC4 [3], the “cryo-EM structure at 3.8 Å; also dose-dependent inhibition of (-)-Englerin A cur” value is given as “an extra density was observed inside the VSL domain region of GFB-8749-bound TRPC4”.
For “Mouse calmodulin (CaM) (from UniProt P0DP26 1-149) (natural protein)”, in experiment [4], the percent of TRPC4 channels with four CaM bound (fully saturated) was 20%, the percent of TRPC4 channels with one CaM bound came to 13%, the percent of TRPC4 channels with three CaM bound came to 31% and the percent of TRPC4 channels with two CaM bound came out at 35%. In addition, the stoichiometry N (CaM per TRPC4 tetramer) in experiment [4] was less than 4.
In general, stoichiometry N refers to a count of units in the complex or per binding partner. Regarding “Zebrafish TRPC4 (Danio rerio TRPC4, residues 2-915) (natural protein)”, the stoichiometry N in experiment [4] and in experiment [5] was 4 in each case.
